Results on four molecules are retold here after article PMC4332252 (The Journal of Cell Biology, 2015).

Series [1] concerns the molecule itself. The series is described as follows: SEC-MALS. (SEC sorts molecules by how far they enter the pores of the column.)
In series [2] the target is T1, Plk4-EGFP (Drosophila melanogaster, UniProt O97143 1-769).
T1 sequence (looked up): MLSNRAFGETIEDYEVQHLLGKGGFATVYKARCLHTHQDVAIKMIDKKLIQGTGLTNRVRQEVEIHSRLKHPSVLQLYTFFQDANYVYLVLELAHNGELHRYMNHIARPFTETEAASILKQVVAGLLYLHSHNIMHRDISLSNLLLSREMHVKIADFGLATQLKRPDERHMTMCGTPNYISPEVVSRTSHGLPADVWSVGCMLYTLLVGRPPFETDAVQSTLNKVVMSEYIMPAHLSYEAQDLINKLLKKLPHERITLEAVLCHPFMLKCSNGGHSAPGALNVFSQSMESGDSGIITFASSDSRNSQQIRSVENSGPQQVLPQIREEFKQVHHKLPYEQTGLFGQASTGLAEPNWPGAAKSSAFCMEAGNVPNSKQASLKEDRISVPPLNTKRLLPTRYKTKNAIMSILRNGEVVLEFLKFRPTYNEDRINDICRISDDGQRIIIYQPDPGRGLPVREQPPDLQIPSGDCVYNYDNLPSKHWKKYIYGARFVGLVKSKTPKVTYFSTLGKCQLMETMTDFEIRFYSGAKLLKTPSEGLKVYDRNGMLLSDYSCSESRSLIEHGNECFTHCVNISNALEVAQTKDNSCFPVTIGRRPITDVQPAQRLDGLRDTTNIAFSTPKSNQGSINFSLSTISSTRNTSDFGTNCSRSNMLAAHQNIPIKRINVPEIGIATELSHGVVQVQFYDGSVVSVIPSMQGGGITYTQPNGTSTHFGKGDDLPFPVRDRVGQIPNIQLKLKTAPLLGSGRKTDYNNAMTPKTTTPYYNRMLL
The experiment in a line: co-IP.

B1: His6-Asl-C (aa 626-994) (domain or fragment, Drosophila melanogaster, UniProt Q9VNE4 626-994, looked up)
chain: EAVAVAKESSENCSKCIESIAEITKAEIQLLKLQNVNSMQAKELKELEHALEQSKNLQAEMQEKIELSNKQDELISDLKERAKQFEAYIRQQEEHKQQNKCTPSPKSNSVSPSDPSPKELTQNRIRLIEQRVRDEMAKLFAAELKRFTNRLQKSEERSQCLQREYQTVCAELQQRQTEVDLLKQTILAERENIDEILAGREEKQKEMLQKCRQELQAKNQRIAELLREVEEQHASIDSERQSMKAVMAQWEKQRQSVDQVEHHWRQQLESLRSTHEEAMRSAQQRYQSAKRTAHNYKLYAEDKEAHMKREYERIKHEYELSLAKIEATMNQHLERRSREKHRDKENVPSNSSSDPITNSNRKPKGNGHS
The term stoichiometry N denotes the number of molecules, sites or subunits per partner or assembly. Turning to B1, the “stoichiometry N” value in series [1] was found to be 3.

B2: His6-Asl-B (aa 358-625) (domain or fragment, Drosophila melanogaster, UniProt Q9VNE4 358-625, looked up)
chain: TSRLSQMGGSRLVGSTPLNPLDRVGHIKQELYRALGNLKNKREEVRRLEKLLEERNQELRVLRDQENQSLVQLETLNEGKMRLENKVKAMQQELEEQKHRSQQESDVHSQLNSIVAERDALREKRQQIEEDLEQLKQQNESLQRNYDQLSQENRQLRTRETADNLRLELERHKILLRDSQSEVERLKKLYSDIATDKESLGYELRKLRESDTLKELQDQRQNLATVQRNLQLAEMKSEELKKLLETEKLSHERDLQALRQRSEREKRE
As for B2, in series [1], the “stoichiometry N” value turned out to be 2.

B3: His6-Asl-A (aa 1-357) (domain or fragment, Drosophila melanogaster, UniProt Q9VNE4 1-357, looked up)
chain: MNTPGISLFQGADALNINSTLDRQEEEEALQDQKRREEELGRIMVNAFDDLLDEENTIDSTTNYQSELEQPPVLPNYPSHPHHKPLQDDAQRANEIEMHRLQILLESKNNELQNVNQVANAAHKKLDDLQKHLSIMQAELDRAIREKQNTHELLVETKETCSNKDSDLDKLRSEKKQLEEDNTRLVGQLEAAKTLLTDVQSKYDMVQASKQKWEERNADLRLKQMEEAHRAQSDLLQQQLCQMKDQLDRKQNELDQINSRYNALQSGHETMLVDKAAKINELSQALDEAQMRCNQLSARPDLQAENRRQQQCIVDLKARIAYLEQTVASLHERLNETTTELDLIDSVIQQHQADESP
For the molecule B3, in series [1], the “stoichiometry N” value was found to be 2.

B4: Plk4-myc (natural protein, Drosophila melanogaster, UniProt O97143 1-769, looked up)
chain: T1 sequence (looked up)
As for B4, the “fold increase of bound Plk4-myc with Asl coexpressed, against without Asl” value in series [2] is ~4 fold.
